In this data set the target is TFAP2 (AP-2) (UniProt P05549). The data set is described as follows: DNA pull-down, SILAC MS and immunoblot. As to conditions: PBB: 150 mM NaCl, 50 mM Tris/HCl pH 8.0, 10 mM MgCl2, 0.5% NP-40, protease inhibitor; 200 ug SILAC nuclear extract, 2 h at 4 C (automated: 8 C); elution 16 mM …. (In general: In western blotting, separated proteins are transferred to a membrane and probed.)
TFAP2 (AP-2), sequence (P05549 whole entry): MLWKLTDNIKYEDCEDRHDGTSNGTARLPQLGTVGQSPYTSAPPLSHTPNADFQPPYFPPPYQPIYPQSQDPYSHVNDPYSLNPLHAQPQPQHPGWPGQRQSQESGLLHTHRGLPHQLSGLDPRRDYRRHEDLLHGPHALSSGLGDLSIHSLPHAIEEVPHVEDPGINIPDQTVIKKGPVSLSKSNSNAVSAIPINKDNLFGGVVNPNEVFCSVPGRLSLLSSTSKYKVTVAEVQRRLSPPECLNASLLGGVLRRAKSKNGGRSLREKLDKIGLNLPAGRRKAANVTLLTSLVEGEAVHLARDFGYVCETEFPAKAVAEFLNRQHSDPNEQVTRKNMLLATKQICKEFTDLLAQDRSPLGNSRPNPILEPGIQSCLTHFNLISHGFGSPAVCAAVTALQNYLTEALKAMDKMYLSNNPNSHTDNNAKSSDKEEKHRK

As for “AACAAAACTGCAGGATCGAACTGACCGCCCGGGGCACGTGTC / TTGACACGTGCCCCGGGCGGTCAGTTCGATCCTGCAGTTTTG [AP2_C]”, the binding signal (SILAC ratio C/A) stood at 10.

The record behind these values is publication PMC3459973.
